Experimental data taken from US12427163B2, “Anti-VTCN1 antibodies and antibody drug conjugates” (Bluefin BioMedicine, Inc., priority 2017, dated 2025).
Numbering of substitutions follows the chain as printed.

T1: 293 cells expressing recombinant human VTCN1 (Homo sapiens, UniProt Q7Z7D3)
T1 construct: expressed in transfected cells; host or cells: 293 cells
T1 sequence (Q7Z7D3 25-282): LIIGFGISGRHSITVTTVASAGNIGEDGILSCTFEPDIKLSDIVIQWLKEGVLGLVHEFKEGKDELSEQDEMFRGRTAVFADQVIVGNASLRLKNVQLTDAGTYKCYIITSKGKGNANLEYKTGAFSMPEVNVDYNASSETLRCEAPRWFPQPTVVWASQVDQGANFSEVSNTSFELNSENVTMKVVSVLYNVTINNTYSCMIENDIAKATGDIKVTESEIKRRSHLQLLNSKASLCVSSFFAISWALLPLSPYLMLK

T2: human VTCN1 protein (Homo sapiens, UniProt Q7Z7D3)
T2 construct: His
T2 sequence (Q7Z7D3 25-282): T1 sequence (Q7Z7D3 25-282)

T3: mouse VTCN1 protein (Mus musculus, UniProt Q7TSP5)
T3 construct: His
T3 sequence (Q7TSP5 25-257): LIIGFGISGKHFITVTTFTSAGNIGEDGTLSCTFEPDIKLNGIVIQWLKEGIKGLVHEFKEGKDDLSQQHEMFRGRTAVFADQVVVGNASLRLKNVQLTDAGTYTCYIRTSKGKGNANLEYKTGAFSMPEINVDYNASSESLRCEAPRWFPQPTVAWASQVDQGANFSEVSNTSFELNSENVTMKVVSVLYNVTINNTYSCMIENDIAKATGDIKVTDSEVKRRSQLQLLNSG

B1: 4C7_63A1: fully human VTCN1 antibody; VH SEQ ID NO: 248, VL SEQ ID NO: 252 (antibody, V domains shown)
VH: QVQLQESGPGLVKPSGTLSLTCAVSGGSISSSNWWSWVRQPPGKGLEAIGEIYHSGNTNYNPSLKSRVTISVDKSKNQFSLKLSSVTAADTAIYYCARDGYSSGWYWGYFDYWGQGTLVTVSS
VL: EIVMTQSPATLSVSPGERATLSCRASQSVNSNLAWYQQKPGQAPWLLIYGASTRATGIPARFSGSGSGTEFTLTISSLQSEDFAVYYCQQYNHWPYTFGQGTKLEIK
B2: 13H9_44D2: fully human VTCN1 antibody; VH SEQ ID NO: 272, VL SEQ ID NO: 276 (antibody, V domains shown)
VH: QVQLQESGPGLVKPSETLSLTCTVSGGSISSYYWSWIRQPPGKGLEWIGYIYYSGSTNNNPSLKSRVTISVDTSKNQFSLKLISVTAADTAVYYCARVYNNYDWGFDYWGQGTLVTVSS
VL: B1 VL with N30S, W45R, S76R, N92H, H93N, Y96L, Q100G
B3: 16H12_60B4: fully human VTCN1 antibody; VH SEQ ID NO: 283, VL SEQ ID NO: 286 (antibody, V domains shown)
VH: QVQVVQSGAEVKKPGSSVKVSCKASGDTFSNYAISWVRQAPGQGLEWMGGIIPIFGITNYAQKFQGRVTIIADKSTRTAYMELSSLRSEDTAVYYCSRGGPYFDYWGQGILVTVSS
VL: B1 VL with N30S, W45R, N92K, H93K, Y96F, Q100P, L104V, E105D
B4: 14D6_60B5: fully human VTCN1 antibody; VH SEQ ID NO: 278, VL SEQ ID NO: 281 (antibody, V domains shown)
VH: B3 VH with V4L, Q6H, K13R, D27G, N31S, T58A, S97A
VL: B1 VL with N30S, W45R, H93K, Y96F, Q100P, L104V, E105D
B5: 12B5_44B1: fully human VTCN1 antibody; VH SEQ ID NO: 264, VL SEQ ID NO: 268 (antibody, V domains shown)
VH: QVQLVQSGAEVKKPGSSMKVSCKASGDTFSSYAISWVRQAPGQGLEWMAGIIPVFGTAHNAQKFQGRVTITADKSTSTAYMELSSLRSEDTAVYYCTRGGPYFDYWGQGTLVTVSS
VL: EIVMTQSPATLSVSPGERAALSCRASQSVSSNLAWYQQKPGQAPRLLIYGVSTRATGIPDRFNGSGSGTEFTLTISSLQSEDFGAYYCQQYKKWPFIFGPGTKLEIK
B6: 6D9-mIgG1: 6D9 antibody converted from a mouse IgG2a to a mouse IgG1 (antibody, V domains shown)
VH: QIQLQQSGPGLVQPSQSLSITCTVSGFSLTSYGVQWIRQSPGKGLEWLGVIWSSGSTDYNAAFLSRLSFSKDNSKSQVFFQMNSLQADDSAIYYCARDVTTIVEGFAHWGQGTLVTVSA
VL: NIVMTQSPKSMSMSVGERVTLSCKASEKVGTYVSWYQQKPEQSPKLLIYGASNRYTGVPDRFTGSGSATDFTLTISSVQVEDLADYHCGQTYSYPFTFGSGTKLEIK
B7: 7G7_44C6: fully human VTCN1 antibody; VH SEQ ID NO: 256, VL SEQ ID NO: 260 (antibody, V domains shown)
VH: QVQLQESGPGLVKPSETLSLTCTVSGGSISHYYWSWIRQPPGKGLEWIGYIYYSGPTNYNPSLKSRVTISVDTSKNQFSLKLSSVTAADTAVYYCARTYYYGSGSFPDAFDIWGQGTMVTVSS
VL: KIVLTQSPATLSLSPGERATLSCRASQSVSSYLAWYQQTPGQAPRLLIYDASNRATGIPARFSVSGSGTDFTLTISSLEPEDFAVYYCQQRSSWPLTFGGGTKLEIK
B8: hu6D9_66B1: humanized 6D9 antibody; VH SEQ ID NO: 236, VL SEQ ID NO: 224 (antibody, V domains shown)
VH: QVQLVESGGGVVQPGRSLRLSCAVSGFTFSSYGVQWVRQAPGKGLEWLGVIWSSGSTDYNAAFLSRLTISKDNSKNTVYFQMNSLRAEDTAVYYCARDVTTIVEGFAHWGQGTLVTVSS
VL: DIQMTQSPSSLSASVGDRVTITCKASEKVGTYVSWYQQKPGKAPKLLIYGASNRYTGVPSRFSGSGSGTDFTLTISSLQPEDFATYYCGQTYSYPFTFGQGTKLEIK

Key:
[1] = test system: cynomolgus monkey VTCN1 protein; experiment: Affinity by OCTET, cynomolgus monkey VTCN1; format: binding; conditions: Table 12
Description: (§1) The affinity of antibodies to recombinant VTCN1 was determined on an OCTET™ Red (Pall, ForteBio) instrument. After loading reagents into a 96-well plate, the OCTET™ Red with Protein A-conjugated biosensors was programmed as follows: 30 seconds for baseline #1; 45 seconds to immobilize the antibody; 30 seconds for baseline #2; 300 seconds for association of antibody to recombinant VTCN1-his; and 300 seconds for dissociation of recombinant VTCN1-his from the antibody.

[2] = target: T1, 293 cells expressing recombinant human VTCN1; experiment: Cell-based competition binding FACS assay against 6D9; conditions: 6D9 10 μg/ml, human antibody 1 μg/ml
Description: To assess if these human VTCN1 antibodies bind to same or different regions of VTCN1 protein, a cell-based competition binding FACS assay was performed. […] The cells were then resuspend in FACS buffer with DAPI, and analyzed by flow cytometry.

human VTCN1 protein = target: T2, human VTCN1 protein; experiment: Affinity to recombinant VTCN1-his by OCTET Red (Protein A biosensors); format: binding; conditions: for Human K(off) / Human k(on): Table 12
Description: as §1, with “antibody. Table 5 lists the affinity measured for selected antibodies.” for “antibody.”

mouse VTCN1 protein = target: T3, mouse VTCN1 protein; experiment: Affinity by OCTET, mouse VTCN1; format: binding; conditions: Table 12
Description: as §1, with “antibody. Table 5 lists the affinity measured for selected antibodies.” for “antibody.”

KLN205 tumors = experiment: KLN205 syngeneic mouse lung squamous tumor model in DBA2 mice; format: in vivo
Description: For the tumor study. 6-8 week-old female DBA2 mice were implanted subcutaneously in the right flank with 2.5×10^5 mouse lung squamous carcinoma KLN205 cells in 50% matrigel on day 0. Mice were treated with PBS as a vehicle control, a mouse IgG isotype control (10 mg/kg), or anti-VTCN1 6D9 antibody (10 mg/kg) on days 3, 6, 10, 13, 15, 17, 20, and 22 following tumor implantation by intraperitoneal (i.p.) injection. Tumors were measured using an electronic caliper twice a week and tumor volume was calculated using the formula 0.52*length*width*width. Mouse body weight was also measured and recorded.
6-8 week-old female DBA2 mice were implanted subcutaneously in the right flank with 2.5×10^5 mouse lung squamous carcinoma cell KLN205 cells in 50% matrigel on day 0. Tumors were measured on day 7 and mice are randomized to 7 treatment groups. The average size was 50 mm^3. The treatment groups were: PBS vehicle control, mIgG2a isotype control. 6D9, anti-mouse PD1 antibody RMP1-14, 6D9+RMP1-14, anti-mouse CTLA-4 antibody 9D9, and 6D9+9D9. The mice were treated on days 8, 11, 13, 15, 18, 20, 22, and 25. All antibodies were 10 mg/kg by i.p.
To test the activity of the 6D9 and 6D9-mIgG1 antibodies, 6-8 weeks old female DBA2 mice were implanted subcutaneously in the right flank with 0.2 million KLN205 cells in PBS on day 0. Mice were randomized on day 9 into 3 treatment groups, mIgG1 control. 6D9-mIgG1, 6D9-mIgG2a. Mice were treated on days 9, 11, 15, 18, and 22 by i.p. with 200 μg antibodies (10 mg/kg). […] However.

Row | Molecule | cynomolgus monkey k(off) [1] | cynomolgus monkey k(on) [1] | competition with 6D9 for binding to VTCN1 [2] | Human K(off) (human VTCN1 protein) | Human k(on) (human VTCN1 protein) | mouse k(off) (mouse VTCN1 protein) | mouse k(on) (mouse VTCN1 protein) | mouse survival / time to tumor end point 1500 mm^3 (KLN205 tumors; Example 15) | KLN205 primary tumor growth, isotype comparison (KLN205 tumors; Example 15, 200 μg (10 mg/kg) i.p. from day 9) | Kd (mouse VTCN1 protein) | K(off) (human VTCN1 protein; Table 9) | k(on) (human VTCN1 protein; Table 9)
1 | B1 | 5.80E−03 | 1.23E+05 | compete with 6D9 | 5.81E−03 | 1.19E+05 | 4.01E−03 | 9.07E+04 | – | – | – | – | –
2 | B2 | 1.67E−01 | 1.16E+06 | – | 1.71E−01 | 1.33E+06 | 5.79E−01 | 2.16E+06 | – | – | – | – | –
3 | B3 | 2.40E−04 | 2.45E+05 | do not compete with 6D9 | 1.95E−04 | 2.62E+05 | 3.76E−03 | 1.37E+05 | – | – | – | – | –
4 | B4 | 6.91E−04 | 1.32E+05 | do not compete with 6D9 | 6.29E−04 | 1.32E+05 | 6.47E−03 | 1.15E+05 | – | – | – | – | –
5 | B5 | 3.74E−04 | 1.80E+05 | do not compete with 6D9 | 3.54E−04 | 1.61E+05 | 8.11E−03 | 2.15E+05 | – | – | – | – | –
6 | B6 | – | – | – | – | – | – | – | prolonged mouse survival | inhibit primary tumor growth | – | – | –
7 | B7 | 1.50E−01 | 6.61E+05 | – | 1.62E−01 | 8.42E+05 | – | – | – | – | > 500 nM | – | –
8 | B8 | – | – | – | – | – | – | – | – | – | – | 3.25E−03 | 1.20E+05
